Assay: Z-ISO in vitro enzyme assay with substrate-containing liposomes
Assay type: biochemical, Zea mays
Procedure: Z-ISO in vitro enzyme assay. Preparation of substrate-containing liposomes. To produce the substrate, 9,15,9′-tri-cis-ζ-carotene (tri) from E. coli BL21(DE3) cultures, 400 ml of Luria-Bertani medium (I % tryptone, 0.5% yeast extract and 1% NaCl) containing chloramphenicol (34 μg per ml (Sigma-Aldrich)) was inoculated with 8 ml of overnight culture containing pACCRT-EBP (no. 150). Cultures were grown in the dark at 37° C., with shaking at 160 r.p.m. for 8 h before induction with 10 mM IPTG. Cultures were further incubated at 28° C., with shaking at 100 r.p.m. for 40 h and for an additional 2 d without shaking. Cells were centrifuged at 2,600 g, and pellets were resuspended in a total of 40 ml of methanol, distributed in four conical tubes with equal volumes of extract and then sonicated twice on ice (30 s each, at 60% power) with a Vibra Cell VC600 sonicator equipped with a tapered 3-mm microtip (Sonics & Materials). Extracts were centrifuged at 2,600 g for 10 min, and supernatants were transferred to 15-ml conical tubes and evaporated under nitrogen gas in the dark. Dried samples were resolubilized in 300 μl of methanol, transferred to 1.5-ml microfuge tubes, frozen at −80° C. for 1 h and centrifuged at 16,000 g at 4° C. Extractions were then combined, and 1 ml was used to prepare liposomes. Cells also accumulate […] (di), and therefore enzymatic conversion is measured as the ratio of di to tri isomers. For preparation of liposomes, 1 ml of substrate extract (58 μM, estimated by spectroscopy, with the molar extinction coefficient for ζ-carotene, ε400, equal to 138,000) was mixed with 35 μl of soybean L-α-phosphatidylcholine (Sigma-Aldrich, 99% pure) (20 mg per ml in methanol). The mixture was dried under N2, and this was followed by addition of 800 μl sonication buffer (25 mM HEPES, pH 7.8, 100 mM NaCl and 10% glycerol) and sonication on ice with a Vibra Cell VC600 sonicator equipped with a 3-mm tapered microtip (Sonics & Materials) for 1 min, at intervals of 10 s at 20% power.
In vitro reactions. […]

B1: Z-ISO: 15-cis-ζ-carotene isomerase from Zea mays (SEQ ID NO: 12), heme b enzyme, purified as TEV-cleavable MBP fusion (protein)
chain: MASQLRLHLAATPPLLPHRRPHLPRPLCPTLNPIRAPLPPLSRVLSHARPARAVGGGIEPKEGVVAEGDESGGGPVLVGEDSAAFELKDQSVASWAYFAGILGAVLVALNVLWIDPSTGVGTKFLDAVASVSDSHEVVMLLLTIIFAVVHSGMASLRESGEKIVGERVYRVLFAGISLPLAVTTIVYFINHRYDGTQLWQVQGITGIHELLWFSSFISFFFLYPSTFNLLEVAAVDKPKLHMWETGIMRITRHPQMVGQVIWCLAHTLWIGNSVAVAASVGLISHHLFGAWNGDRRLLSRYGEAFEVLKKRTSVMPFAAIIDGRQKLPKDYHKEFFRLPYVAITMLTLGAYFAHPLMQASSYQLPW
modifications: MBP fusion, TEV-cleavable; Zea mays
With B1 the “conversion of substrate to product” value (Z-ISO pretreated with dithionite, 10 mM final (reducing conditions)) was “Conversion of the substrate to product occurred”, the “conversion of substrate to product” value (as-purified enzyme (considered to be oxidized)) was “not functional” and the “conversion of substrate to product” value (heat-denatured Z-ISO) was “not functional”.
